According to patent US20070248536A1:

How the values were obtained:
human IgG Fc (human) [1] = test: SPR (BIACORE), value before the coupling to PE
human IgG Fc (human) [2] = test: concentration-dependent ELISA, IgG Fc coated, apparent KD
human IgG Fc (human) [3] = test: method not given; given for comparison with the ELISA value

Row | Binder | Kd (human IgG Fc (human) [1]) | Kd (human IgG Fc (human) [2]) | Kd (human IgG Fc (human) [3])
1 | Affilin variation SPC1-A7_Cys (designed binder) MGLISFSEDRAFQGRRYMCLTDCPNLQPYFSRCNSINVWSGCWMIYERPNYQGHQYFLRRGEYPDYQQWMGLSDSIRSCCLIPPHSGAYRMKIYDRDELRGQMSELTDDCLSVQDRFHLTEIHSLNVLEGSWILYEMPNYRGRQYLLRPGEYRRFLDWGAPNAKVGSLRRVMDLYLESGGGGGGSCHHHHHHHHHH | 100 nM | 233 nM | –
2 | Affilin variation SPC1-A7BB (designed binder) MGLISFSEDRAFQGRRYMCLTDCPNLQPYFSRCNSINVWSGCWMIYERPNYQGHQYFLRRGEYPDYQQWMGLSDSIRSCCLIPPHSGAYRMKIYDRDELRGQMSELTDDCLSVQDRFHLTEIHSLNVLEGSWILYEMPNYRGRQYLLRPGEYRRFLDWGAPNAKVGSLRRVMDLYLEHHHHHH | – | – | 280 nM
